Reference: patent US20040109857A1 (Novartis, published 2004)

Experiments:
[1] = molecular target: chimpanzee CD40 expressed on peripheral blood B cells (chimpanzee) (UniProt K7BNQ5); test: cell-based or functional assay
[2] = molecular target: chimpanzee CD40 expressed on peripheral blood B cells (chimpanzee, UniProt K7BNQ5 21-277); test: cell-based or functional assay
human CD40 = molecular target: T1, human CD40 (human, UniProt P25942 21-193, limits assumed); test: BIACore assay
T1 construct: CD40 as used in the BIACore assay; also called CD40 antigen
T1 sequence (P25942 21-193 limits assumed): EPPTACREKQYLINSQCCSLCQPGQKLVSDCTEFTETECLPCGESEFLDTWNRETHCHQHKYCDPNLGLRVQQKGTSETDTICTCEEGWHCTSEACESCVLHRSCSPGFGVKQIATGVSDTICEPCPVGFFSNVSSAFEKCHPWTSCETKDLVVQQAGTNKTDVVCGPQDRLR

chimpanzee CD40 expressed on peripheral blood B cells (chimpanzee), sequence (K7BNQ5 entry or part of it limits assumed): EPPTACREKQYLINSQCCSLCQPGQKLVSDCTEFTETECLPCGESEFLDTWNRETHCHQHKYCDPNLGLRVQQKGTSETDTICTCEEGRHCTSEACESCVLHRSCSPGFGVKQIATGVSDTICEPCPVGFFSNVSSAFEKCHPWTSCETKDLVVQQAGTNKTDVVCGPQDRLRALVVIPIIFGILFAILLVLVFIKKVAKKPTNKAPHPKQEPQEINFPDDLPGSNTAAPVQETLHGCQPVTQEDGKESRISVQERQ
chimpanzee CD40 expressed on peripheral blood B cells, sequence (K7BNQ5 entry or part of it limits assumed): as above

CD40L fold increase of proliferation over huIgG2 at 5 ug/ml; chimp PBMC, 1 sample [1] | 15B8 fold increase of proliferation over huIgG2; chimp PBMC, 1 sample, 15B8 5 ug/ml [2] | Kd (human CD40) | Molecule
10.2 fold | – | – | human CD40L expressed on transfected cells (CHO cells; murine L-cells) (from UniProt P29965 1-261) (ligand)
– | 2.46 fold | 3.1 nM | 15B8, fully human anti-CD40 monoclonal antibody (antibody, human IgG2, V domains shown, Human IgG2 isotype with human kappa light chain, from hybridoma 15B8 (Xenomouse); two heavy and two light chains, 1,284 residues in all; In one FACS format it was directly FITC-labelled; also called antagonist anti-CD40 antibody 15B8; 15B8 MAb) VH: QVQLQESGGGVVQPGRSLRLSCAASGFTFNNFGIHWVRQAPGKGLEWVAVISYDGSDKYYADSVKGRFTISRDNSKNTLNLQMNSLRAEDTAVYYCARDRRYYYHYYGMDVWGQGTMVTVSS VL: DIVMTQSPLSLSVAPGQPASISCKSSQSLLESYGETYLYWYLQKPGQPPQLLIYAVFKRFSGVPDRFSGSGSGTDFTLKISRVEAEDVGVYYCMQSMQLPLTFGGGTKVEIK
